Laboratory results as given in patent publication US6673354B2, “Compositions and methods for treating papillomavirus-infected cells” (priority 1998, dated 2004).
Where no end group is shown, it is not given here.

Key:
HPV11 E1/E2 interaction = molecular target: T1, HPV11 E1/E2 interaction (Human papillomavirus 11, UniProt P04014); assay: In vitro HPV E1-E2 binding assay, HPV11 E1 and HPV11 E2
T1 construct: made in house; host or cells: Hi-Five insect cells infected with recombinant baculoviruses (gift from Louise Chow); nuclear extracts
T1 sequence (P04014 whole entry, looked up): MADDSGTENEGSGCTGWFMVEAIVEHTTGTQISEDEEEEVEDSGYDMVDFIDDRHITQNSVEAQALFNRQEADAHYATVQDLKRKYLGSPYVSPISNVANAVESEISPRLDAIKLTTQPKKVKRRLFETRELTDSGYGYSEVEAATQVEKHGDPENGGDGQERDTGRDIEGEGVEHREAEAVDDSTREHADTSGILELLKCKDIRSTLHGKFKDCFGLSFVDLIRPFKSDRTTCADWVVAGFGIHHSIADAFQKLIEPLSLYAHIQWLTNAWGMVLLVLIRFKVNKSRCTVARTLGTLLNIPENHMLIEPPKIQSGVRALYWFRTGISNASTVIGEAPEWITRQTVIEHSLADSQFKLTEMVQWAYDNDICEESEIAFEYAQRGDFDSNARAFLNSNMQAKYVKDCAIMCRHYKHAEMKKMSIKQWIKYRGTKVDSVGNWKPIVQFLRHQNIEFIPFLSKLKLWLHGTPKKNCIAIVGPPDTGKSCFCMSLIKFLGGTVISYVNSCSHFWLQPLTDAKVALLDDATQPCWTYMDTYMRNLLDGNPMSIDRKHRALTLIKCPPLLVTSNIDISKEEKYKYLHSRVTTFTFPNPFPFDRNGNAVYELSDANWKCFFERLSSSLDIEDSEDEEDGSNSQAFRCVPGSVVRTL
Description: (§1) In vitro HPV E1-E2 binding assay. 300-500 ng protein from HPV16 or HPV11 EE-E1 expressing recombinant baculovirus infected cell nuclear extracts and 80-120 ng from HPV E2 baculovirus infected cell nuclear extracts were incubated in 500 μl NET-gel buffer (50 mM Tris-HCl pH7.5, 150 mM NaCl, 0.1% NP-40, 1 mM EDTA, 0.25% gelatin) at 4° C. for one hour. 1-2 μg anti-EE monoclonal antibody was added and incubated with shaking at 4° C. for one hour. Immune complexes were precipitated with protein-G agarose beads and washed twice for 30 minutes with ice cold NET-gel buffer. Precipitated proteins were detected by Western blot using appropriate primary antibodies and anti-rabbit IgG HRP or anti-mouse IgG HRP (Amersham). Membranes were blocked for one hour in TNET (10 mM Tris 7.5, 2.5 mM EDTA, 50 mM NaCl, 0.1% Tween-20) containing 4% (w/v) dry milk. Washes and antibody reactions were carried out in TNET, and proteins were visualized by chemiluminescence (Reneaissance ECL, NEN) and autoradiography. Bands were quantitated using the NIH image program.
(§2) Very little is known about the physical properties of domains within the papillomavirus E1 and E2 proteins that are involved in intermolecular recognition and association. […] The effect of the E2N-WP15 peptide on these interactions was also assessed. […]

[1] = molecular target: T2, interaction between HPV11 E1 and HPV16 E2 (Human papillomavirus 11, UniProt P04014); assay: In vitro HPV E1-E2 binding assay, HPV11 E1 and HPV16 E2
T2 construct: made in house; host or cells: Hi-Five insect cells infected with recombinant baculovirus (HPV-11 EE-E1 virus a gift from Louise Chow); nuclear extracts
T2 sequence (P04014 whole entry, looked up): T1 sequence (P04014 whole entry, looked up)
Description: as §1, §2

## WKHMRLACAIYYKAR [E2N-MP15]
HPV11 E1/E2 interaction
  inhibition of HPV11 E1/E2 interaction: did not inhibit
[1]
  inhibition of interaction between HPV11 E1 and HPV16 E2: did not inhibit
